Measured values reported in the RNAGym collection of RNA variant scans (doi:10.1093/molbev/msab373).

B1: Azoarcus group I ribozyme (parent)
chain: GUGCCUUGCGCCGGGAAACCACGCAAGGGAUGGUGUCAAAUUCGGCGAAACCUAAGCGCCCGCCCGGGCGUAUGGCAACGCCGAGCCAAGCUUCGGCGCCUGCGCCGAUGAAGGUGUAGAGACUAGACGGCACCCACCUAAGGCAAACGCUAUGGUGAAGGCAUAGUCCAGGGAGUGGCGAAAGUCACACAAACCGG

Variants of: B1
Experiment: reverse-splicing fitness (ratio to wild type); higher = more active; in vitro selection; Mg2+ level not given
How it was run: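 An in vitro group I ribozyme library with randomized positions was T7-transcribed and gel-purified. In triplicate, 10 pmol RNA in EPPS pH 7.5 was reacted with 50 pmoles of a 30-nt RNA substrate for 1 h at 37 °C across several added MgCl2 levels (1–48 mM), then stopped with EDTA. Products were reverse transcribed from a substrate-complementary primer, PCR-amplified and sequenced (HiSeq 4000). Fitness is a variant's read proportion after selection over that before, normalised to wild type.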

Variant	reverse-splicing fitness
C82G A111C A145G C150U	0.205
C82G A111C A145G C150U C169A	0.0097
C82G A111C A145G C150U C169A U176A	0.0153
C82G A111C A145G C150U C169A U176C	0.0146
C82G A111C A145G C150U C169A U176G	0.00789
C82G A111C A145G C150U C169G	0.00884
C82G A111C A145G C150U C169G U176A	0.0107
C82G A111C A145G C150U C169G U176C	0.0159
C82G A111C A145G C150U C169G U176G	0.00611
C82G A111C A145G C150U C169U	0.0115
C82G A111C A145G C150U C169U U176A	0.0129
C82G A111C A145G C150U C169U U176C	0.0127
C82G A111C A145G C150U C169U U176G	0.0071
C82G A111C A145G C150U U176A	0.0896
C82G A111C A145G C150U U176C	0.11
C82G A111C A145G C150U U176G	0.0306
C82G A111C A145G C169A	0.0104
C82G A111C A145G C169A U176A	0.0222
C82G A111C A145G C169A U176C	0.0311
C82G A111C A145G C169A U176G	0.00852
C82G A111C A145G C169G	0.00916

Variant	reverse-splicing fitness
C82G A111C A145G C169G U176A	0.0207
C82G A111C A145G C169G U176C	0.0315
C82G A111C A145G C169G U176G	0.00727
C82G A111C A145G C169U	0.0141
C82G A111C A145G C169U U176A	0.0152
C82G A111C A145G C169U U176C	0.0148
C82G A111C A145G C169U U176G	0.00729
C82G A111C A145G U176A	0.129
C82G A111C A145G U176C	0.147
C82G A111C A145G U176G	0.0463
C82G A111C A145U	0.283
C82G A111C A145U C150A	0.0253
C82G A111C A145U C150A C169A	0.00994
C82G A111C A145U C150A C169A U176A	0.0135
C82G A111C A145U C150A C169A U176C	0.0134
C82G A111C A145U C150A C169A U176G	0.00941
C82G A111C A145U C150A C169G	0.0077
C82G A111C A145U C150A C169G U176A	0.0157
C82G A111C A145U C150A C169G U176C	0.0181
C82G A111C A145U C150A C169G U176G	0.0081
C82G A111C A145U C150A C169U	0.0112

Variant	reverse-splicing fitness
C82G A111C A145U C150A C169U U176A	0.0139
C82G A111C A145U C150A C169U U176C	0.014
C82G A111C A145U C150A C169U U176G	0.00816
C82G A111C A145U C150A U176A	0.0202
C82G A111C A145U C150A U176C	0.0248
C82G A111C A145U C150A U176G	0.0105
C82G A111C A145U C150G	0.0245
C82G A111C A145U C150G C169A	0.00796
C82G A111C A145U C150G C169A U176A	0.00956
C82G A111C A145U C150G C169A U176C	0.0126
C82G A111C A145U C150G C169A U176G	0.00734
C82G A111C A145U C150G C169G	0.0063
C82G A111C A145U C150G C169G U176A	0.00806
C82G A111C A145U C150G C169G U176C	0.00714
C82G A111C A145U C150G C169G U176G	0.00802
C82G A111C A145U C150G C169U	0.00891
C82G A111C A145U C150G C169U U176A	0.00811
C82G A111C A145U C150G C169U U176C	0.0123
C82G A111C A145U C150G C169U U176G	0.00704
C82G A111C A145U C150G U176A	0.0124
C82G A111C A145U C150G U176C	0.0214

Variant	reverse-splicing fitness
C82G A111C A145U C150G U176G	0.0052
C82G A111C A145U C150U	0.172
C82G A111C A145U C150U C169A	0.00854
C82G A111C A145U C150U C169A U176A	0.0121
C82G A111C A145U C150U C169A U176C	0.0132
C82G A111C A145U C150U C169A U176G	0.00772
C82G A111C A145U C150U C169G	0.00905
C82G A111C A145U C150U C169G U176A	0.0124
C82G A111C A145U C150U C169G U176C	0.0196
C82G A111C A145U C150U C169G U176G	0.00868
C82G A111C A145U C150U C169U	0.0121
C82G A111C A145U C150U C169U U176A	0.0161
C82G A111C A145U C150U C169U U176C	0.0115
C82G A111C A145U C150U C169U U176G	0.00778
C82G A111C A145U C150U U176A	0.0841
C82G A111C A145U C150U U176C	0.0883
C82G A111C A145U C150U U176G	0.0297
C82G A111C A145U C169A	0.00813
C82G A111C A145U C169A U176A	0.0149
C82G A111C A145U C169A U176C	0.0153
